Experimental data as given in article PMC6744409.

Molecular target: LptB2FG from Shigella flexneri (Shigella flexneri) (UniProt P0A9V4)

LptC from Shigella flexneri (subunit of sfLptB2FGC) (from UniProt P0ADW2 1-191) (natural protein)
ATPase activity of purified sfLptB2FGC compared with sfLptB2FG under the same conditions: 50 % less
